From US20180244758A1

The binders below were run against EBOV GP[change] (Ebola virus) (UniProt Q05320).
Chain of EBOV GP[change] (Ebola virus) (Q05320 33-501, chain 1 of 2): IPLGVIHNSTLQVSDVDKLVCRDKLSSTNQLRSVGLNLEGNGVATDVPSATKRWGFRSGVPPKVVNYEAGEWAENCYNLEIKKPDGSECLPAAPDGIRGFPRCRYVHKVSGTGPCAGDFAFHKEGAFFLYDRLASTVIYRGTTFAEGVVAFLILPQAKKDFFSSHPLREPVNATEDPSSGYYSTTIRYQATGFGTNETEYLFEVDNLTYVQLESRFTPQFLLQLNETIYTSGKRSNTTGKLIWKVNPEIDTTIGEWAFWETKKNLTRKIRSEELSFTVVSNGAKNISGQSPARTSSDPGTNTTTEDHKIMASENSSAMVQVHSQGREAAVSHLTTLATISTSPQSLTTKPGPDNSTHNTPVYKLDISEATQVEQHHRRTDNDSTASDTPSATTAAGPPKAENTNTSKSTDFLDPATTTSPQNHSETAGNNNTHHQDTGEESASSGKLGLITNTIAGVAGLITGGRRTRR
Chain of EBOV GP[change] (Ebola virus) (Q05320 502-650, chain 2 of 2): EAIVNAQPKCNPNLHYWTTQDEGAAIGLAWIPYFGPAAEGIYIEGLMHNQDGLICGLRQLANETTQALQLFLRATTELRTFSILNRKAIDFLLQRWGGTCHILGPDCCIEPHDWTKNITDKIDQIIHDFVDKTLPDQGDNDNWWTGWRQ

| Binder | Kd [nM] |
| --- | --- |
| mAb PE-87 (antibody, V domains shown) VH: QVQLVQSGVTLVQPGGSLRVSCAASGFTFSSYAMSWVRQAPGKGLEWVSAISGLGGSTYYADSVKGRFTISRDNSKNTLYLQMNSLRAEDTAVYYCAKDHRVWAAGYHFDYWGQGALVTVSS VL: DIVLTQSPSTLSASVGDRVTITCRASQSISSWLAWYQQKPGEAPKLLISDASSLESGVPSRFSGSGSGTEFTLTISSLQPDDFATYYCQQYYSSPTFGGGTKVEIK | < 0.001 |
| PE-87 D99A (antibody, V domains shown) VH: QVQLVQSGVTLVQPGGSLRVSCAASGFTFSSYAMSWVRQAPGKGLEWVSAISGLGGSTYYADSVKGRFTISRDNSKNTLYLQMNSLRAEDTAVYYCAKAHRVWAAGYHFDYWGQGALVTVSS VL: DIVLTQSPSTLSASVGDRVTITCRASQSISSWLAWYQQKPGEAPKLLISDASSLESGVPSRFSGSGSGTEFTLTISSLQPDDFATYYCQQYYSSPTFGGGTKVEIK | 74 |
| PE-87 H100A (antibody, V domains shown) VH: QVQLVQSGVTLVQPGGSLRVSCAASGFTFSSYAMSWVRQAPGKGLEWVSAISGLGGSTYYADSVKGRFTISRDNSKNTLYLQMNSLRAEDTAVYYCAKDARVWAAGYHFDYWGQGALVTVSS VL: DIVLTQSPSTLSASVGDRVTITCRASQSISSWLAWYQQKPGEAPKLLISDASSLESGVPSRFSGSGSGTEFTLTISSLQPDDFATYYCQQYYSSPTFGGGTKVEIK | 4.5 |
| PE-87 R101A (antibody, V domains shown) VH: QVQLVQSGVTLVQPGGSLRVSCAASGFTFSSYAMSWVRQAPGKGLEWVSAISGLGGSTYYADSVKGRFTISRDNSKNTLYLQMNSLRAEDTAVYYCAKDHAVWAAGYHFDYWGQGALVTVSS VL: DIVLTQSPSTLSASVGDRVTITCRASQSISSWLAWYQQKPGEAPKLLISDASSLESGVPSRFSGSGSGTEFTLTISSLQPDDFATYYCQQYYSSPTFGGGTKVEIK | 9.4 |
| PE-87 V102A (antibody, V domains shown) VH: QVQLVQSGVTLVQPGGSLRVSCAASGFTFSSYAMSWVRQAPGKGLEWVSAISGLGGSTYYADSVKGRFTISRDNSKNTLYLQMNSLRAEDTAVYYCAKDHRAWAAGYHFDYWGQGALVTVSS VL: DIVLTQSPSTLSASVGDRVTITCRASQSISSWLAWYQQKPGEAPKLLISDASSLESGVPSRFSGSGSGTEFTLTISSLQPDDFATYYCQQYYSSPTFGGGTKVEIK | 4 |
| PE-87 W103A (antibody, V domains shown) VH: QVQLVQSGVTLVQPGGSLRVSCAASGFTFSSYAMSWVRQAPGKGLEWVSAISGLGGSTYYADSVKGRFTISRDNSKNTLYLQMNSLRAEDTAVYYCAKDHRVAAAGYHFDYWGQGALVTVSS VL: DIVLTQSPSTLSASVGDRVTITCRASQSISSWLAWYQQKPGEAPKLLISDASSLESGVPSRFSGSGSGTEFTLTISSLQPDDFATYYCQQYYSSPTFGGGTKVEIK | 1.3 |
| PE-87 G106A (antibody, V domains shown) VH: QVQLVQSGVTLVQPGGSLRVSCAASGFTFSSYAMSWVRQAPGKGLEWVSAISGLGGSTYYADSVKGRFTISRDNSKNTLYLQMNSLRAEDTAVYYCAKDHRVWAAAYHFDYWGQGALVTVSS VL: DIVLTQSPSTLSASVGDRVTITCRASQSISSWLAWYQQKPGEAPKLLISDASSLESGVPSRFSGSGSGTEFTLTISSLQPDDFATYYCQQYYSSPTFGGGTKVEIK | 0.03 |
| PE-87 Y107A (antibody, V domains shown) VH: QVQLVQSGVTLVQPGGSLRVSCAASGFTFSSYAMSWVRQAPGKGLEWVSAISGLGGSTYYADSVKGRFTISRDNSKNTLYLQMNSLRAEDTAVYYCAKDHRVWAAGAHFDYWGQGALVTVSS VL: DIVLTQSPSTLSASVGDRVTITCRASQSISSWLAWYQQKPGEAPKLLISDASSLESGVPSRFSGSGSGTEFTLTISSLQPDDFATYYCQQYYSSPTFGGGTKVEIK | 30 |
| PE-87 H108A (antibody, V domains shown) VH: QVQLVQSGVTLVQPGGSLRVSCAASGFTFSSYAMSWVRQAPGKGLEWVSAISGLGGSTYYADSVKGRFTISRDNSKNTLYLQMNSLRAEDTAVYYCAKDHRVWAAGYAFDYWGQGALVTVSS VL: DIVLTQSPSTLSASVGDRVTITCRASQSISSWLAWYQQKPGEAPKLLISDASSLESGVPSRFSGSGSGTEFTLTISSLQPDDFATYYCQQYYSSPTFGGGTKVEIK | 18 |
| PE-87 F109A (antibody, V domains shown) VH: QVQLVQSGVTLVQPGGSLRVSCAASGFTFSSYAMSWVRQAPGKGLEWVSAISGLGGSTYYADSVKGRFTISRDNSKNTLYLQMNSLRAEDTAVYYCAKDHRVWAAGYHADYWGQGALVTVSS VL: DIVLTQSPSTLSASVGDRVTITCRASQSISSWLAWYQQKPGEAPKLLISDASSLESGVPSRFSGSGSGTEFTLTISSLQPDDFATYYCQQYYSSPTFGGGTKVEIK | 37 |
| PE-87 D110A (antibody, V domains shown) VH: QVQLVQSGVTLVQPGGSLRVSCAASGFTFSSYAMSWVRQAPGKGLEWVSAISGLGGSTYYADSVKGRFTISRDNSKNTLYLQMNSLRAEDTAVYYCAKDHRVWAAGYHFAYWGQGALVTVSS VL: DIVLTQSPSTLSASVGDRVTITCRASQSISSWLAWYQQKPGEAPKLLISDASSLESGVPSRFSGSGSGTEFTLTISSLQPDDFATYYCQQYYSSPTFGGGTKVEIK | 1.3 |
| PE-87 Y111A (antibody, V domains shown) VH: QVQLVQSGVTLVQPGGSLRVSCAASGFTFSSYAMSWVRQAPGKGLEWVSAISGLGGSTYYADSVKGRFTISRDNSKNTLYLQMNSLRAEDTAVYYCAKDHRVWAAGYHFDAWGQGALVTVSS VL: DIVLTQSPSTLSASVGDRVTITCRASQSISSWLAWYQQKPGEAPKLLISDASSLESGVPSRFSGSGSGTEFTLTISSLQPDDFATYYCQQYYSSPTFGGGTKVEIK | 5.9 |
